The record followed here is patent US20240376218A1.

The target of one test is human CCR4 (human) (UniProt P51679). As to the kind of experiment: cell-based or functional assay.
Test [1] has as its target human CCR4 (P51679_CCR4_HUMAN) (human) (UniProt P51679). Nature of the test: cell-based or functional assay.
Test [2] addresses FcRn immobilized on FcRn column (Roche, Order No. 8128057001). As to the kind of experiment: FcRn affinity chromatography, linear pH gradient.
Test [3] addresses cynomolgus CCR8 (cynomolgus). Nature of the test: FACS, CHO cells expressing cynomolgus CCR8, signal at saturation. A general note: In flow cytometry, cells or beads pass a laser one at a time.
Test [4] addresses human CCR8 tagged with ProLink (human). As to the kind of experiment: cell-based or functional assay.
The next test concerns the target murine CCR8 (mouse) (UniProt P56484). Nature of the test: cell-based or functional assay.
Another test deals with human CCR8 (human) (UniProt P51685). Nature of the test: cell-based or functional assay.

Sequence of human CCR4 (P51679_CCR4_HUMAN) (human) (P51679 whole entry): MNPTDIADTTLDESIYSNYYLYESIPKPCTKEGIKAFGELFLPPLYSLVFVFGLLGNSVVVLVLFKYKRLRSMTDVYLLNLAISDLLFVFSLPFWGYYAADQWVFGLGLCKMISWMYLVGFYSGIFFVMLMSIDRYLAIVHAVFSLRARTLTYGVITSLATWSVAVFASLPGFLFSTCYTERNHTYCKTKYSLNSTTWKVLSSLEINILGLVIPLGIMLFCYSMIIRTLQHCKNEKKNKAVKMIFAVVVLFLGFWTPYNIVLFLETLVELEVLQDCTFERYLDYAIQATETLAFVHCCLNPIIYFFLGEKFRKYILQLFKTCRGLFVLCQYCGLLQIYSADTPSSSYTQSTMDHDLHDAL
Sequence of human CCR4 (human) (P51679 whole entry): as above
Sequence of FcRn immobilized on FcRn column (Roche, Order No. 8128057001) (P55899 24-297, chain 1 of 2): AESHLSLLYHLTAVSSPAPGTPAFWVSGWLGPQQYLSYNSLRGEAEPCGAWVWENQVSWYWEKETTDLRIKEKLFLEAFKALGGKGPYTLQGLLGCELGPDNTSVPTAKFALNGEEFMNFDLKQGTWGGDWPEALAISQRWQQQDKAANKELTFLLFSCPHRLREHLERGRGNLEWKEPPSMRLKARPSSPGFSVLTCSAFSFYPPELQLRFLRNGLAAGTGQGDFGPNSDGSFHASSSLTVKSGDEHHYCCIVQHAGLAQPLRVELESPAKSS
Sequence of FcRn immobilized on FcRn column (Roche, Order No. 8128057001) (P61769 21-119, chain 2 of 2, further chain): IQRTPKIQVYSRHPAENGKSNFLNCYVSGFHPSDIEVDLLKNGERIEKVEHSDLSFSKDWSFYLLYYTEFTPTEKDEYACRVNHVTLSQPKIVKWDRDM
Sequence of murine CCR8 (mouse) (P56484 whole entry): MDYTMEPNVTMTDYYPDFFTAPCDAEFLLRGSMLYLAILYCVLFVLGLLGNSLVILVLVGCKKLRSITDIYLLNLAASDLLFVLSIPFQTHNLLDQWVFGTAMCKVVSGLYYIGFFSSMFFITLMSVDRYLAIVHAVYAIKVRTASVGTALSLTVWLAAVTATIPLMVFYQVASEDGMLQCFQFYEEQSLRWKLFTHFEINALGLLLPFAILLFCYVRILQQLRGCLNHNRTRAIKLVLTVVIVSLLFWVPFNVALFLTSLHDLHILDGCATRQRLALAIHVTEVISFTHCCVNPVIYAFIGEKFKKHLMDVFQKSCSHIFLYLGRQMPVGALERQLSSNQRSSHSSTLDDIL
Sequence of cynomolgus CCR8 (cynomolgus) (O97665 other isoform, or with tags, fused parts or gaps): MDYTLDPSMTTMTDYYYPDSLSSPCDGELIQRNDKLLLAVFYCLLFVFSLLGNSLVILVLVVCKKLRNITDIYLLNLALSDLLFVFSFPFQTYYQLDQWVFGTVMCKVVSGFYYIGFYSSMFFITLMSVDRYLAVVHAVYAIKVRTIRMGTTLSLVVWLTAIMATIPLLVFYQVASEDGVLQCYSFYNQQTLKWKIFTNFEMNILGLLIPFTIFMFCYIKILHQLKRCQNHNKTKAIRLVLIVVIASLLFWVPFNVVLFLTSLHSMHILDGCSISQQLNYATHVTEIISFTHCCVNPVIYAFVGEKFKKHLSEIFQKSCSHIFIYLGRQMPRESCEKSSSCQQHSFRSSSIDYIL
Sequence of Ustekinumab (antibody) (HC): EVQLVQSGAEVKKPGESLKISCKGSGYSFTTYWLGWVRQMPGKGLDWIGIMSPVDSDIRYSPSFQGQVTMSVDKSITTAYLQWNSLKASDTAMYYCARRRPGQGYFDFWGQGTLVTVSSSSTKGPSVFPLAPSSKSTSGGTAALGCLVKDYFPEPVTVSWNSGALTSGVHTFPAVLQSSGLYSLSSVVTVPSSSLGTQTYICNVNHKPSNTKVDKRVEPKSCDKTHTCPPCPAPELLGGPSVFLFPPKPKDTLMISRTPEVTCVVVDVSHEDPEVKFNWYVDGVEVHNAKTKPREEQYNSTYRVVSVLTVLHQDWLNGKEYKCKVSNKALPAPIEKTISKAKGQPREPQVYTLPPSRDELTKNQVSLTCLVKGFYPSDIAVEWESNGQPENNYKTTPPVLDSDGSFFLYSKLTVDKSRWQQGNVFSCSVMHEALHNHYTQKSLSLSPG
Sequence of Ustekinumab (antibody) (LC): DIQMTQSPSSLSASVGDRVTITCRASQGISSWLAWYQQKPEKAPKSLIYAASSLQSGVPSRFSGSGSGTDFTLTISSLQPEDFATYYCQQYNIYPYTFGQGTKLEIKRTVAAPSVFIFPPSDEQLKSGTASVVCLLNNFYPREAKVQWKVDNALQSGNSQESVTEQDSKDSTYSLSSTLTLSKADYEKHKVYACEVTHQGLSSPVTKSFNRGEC

In the test with human CCR4 (human), Mogamulizumab (antibody) returned an ADCC Max Response (%); activated human Tregs (Donor 1100) as target cells, NK92v effector cells of 96%; an ADCC Max Response (%); activated human Tregs (Donor 1100), NK92v effector cells of 74%; an ADCC Max Response (%); activated human Tregs (Donor 1261), NK92v effector cells of 71%; an ADCC hTreg EC50 (pM); activated human Tregs (Donor 1100) as target cells, NK92v effector cells of 35.2 pM. For the same substance, in the test with human CCR4 (human), the ADCC hTreg EC50 (pM); activated human Tregs (Donor 1100), NK92v effector cells came out at 193 pM and the ADCC hTreg EC50 (pM); activated human Tregs (Donor 1261), NK92v effector cells turned out to be 86.4 pM. In test [1], the ADCC EC50, activated Tregs + NK92v, Donor 1213 was determined as 0.31 nM; the ADCC EC50, activated Tregs + NK92v, Donor 1730 amounted to 1.09 nM; the ADCC Max Response, activated Tregs + NK92v, Donor 1213 was 58%; the ADCC Max Response, activated Tregs + NK92v, Donor 1730 amounted to 65%.

In the case of Ustekinumab (antibody), the pH at Elution in test [2] was 7.22 pH.

For L263G8 (Biolegend) (antibody), in test [3], the MFI was less than 1000.

In test [4], “CCL1 (human) (from UniProt P22362 24-96) (ligand)” registered an EC80 of β-arrestin signaling (DiscoverX assay) of 20 ng/mL.

SA214G2 (antibody): the Internalization [fold isotype], mBW5147.3 cells, BODIPY FL-labelled antibody with murine CCR8 (mouse) amounted to 11 fold isotype.

Briakinumab (antibody) yielded a pH at Elution in test [2] of 7.85 pH.

For L263G8 (antibody), in the test with human CCR8 (human), the Ca flux assay IC50 (nM), block of signaling induced by CCL1 at 60 ng/ml; CHO cells expressing human CCR8 was 1.26 nM; the Ca flux assay Span ratio (from max to min), block of signaling induced by CCL1 at 60 ng/ml; CHO cells expressing human CCR8 was determined as 921; the Internalization [fold isotype], HuT78 cells, BODIPY FL-labelled antibody was 22 fold isotype. Besides, the IC50 in nM for inhibition of CCL1 induced β-arrestin signaling (DiscoverX assay), CHO with hCCR8 in test [4] was determined as 13.8 nM.
